Laboratory results published in publication PMC8748714 (2022).
Positions count from the first letter of the chain named. No end group written: not given here.

T1: GLP-1R K202A (Homo sapiens)
T1 chain: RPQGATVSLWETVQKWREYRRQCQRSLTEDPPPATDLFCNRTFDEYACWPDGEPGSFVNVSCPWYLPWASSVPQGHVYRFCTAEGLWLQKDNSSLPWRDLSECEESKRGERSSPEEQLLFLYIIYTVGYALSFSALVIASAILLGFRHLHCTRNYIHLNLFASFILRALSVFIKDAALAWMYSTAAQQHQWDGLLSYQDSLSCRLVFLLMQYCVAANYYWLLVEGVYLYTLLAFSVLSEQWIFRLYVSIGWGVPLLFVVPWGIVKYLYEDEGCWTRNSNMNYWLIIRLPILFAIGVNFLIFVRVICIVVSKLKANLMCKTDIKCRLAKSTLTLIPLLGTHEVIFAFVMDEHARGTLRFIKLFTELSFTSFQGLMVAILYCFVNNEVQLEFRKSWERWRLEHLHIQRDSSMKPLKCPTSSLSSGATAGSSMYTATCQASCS

T2: GLP-1R E138A (Homo sapiens)
T2 chain: T1 chain with E115A, A179K

T3: GLP-1R S193A (Homo sapiens)
T3 chain: T1 chain with S170A, A179K

T4: GLP-1R P137A (Homo sapiens)
T4 chain: T1 chain with P114A, A179K

T5: GLP-1R M204A (Homo sapiens)
T5 chain: T1 chain with A179K, M181A

T6: GLP-1R Q211A (Homo sapiens)
T6 chain: T1 chain with A179K, Q188A


How the values were obtained:
GLP-1R K202A = molecular target: T1, GLP-1R K202A
GLP-1R E138A = molecular target: T2, GLP-1R E138A
GLP-1R S193A = molecular target: T3, GLP-1R S193A
GLP-1R P137A = molecular target: T4, GLP-1R P137A
GLP-1R M204A = molecular target: T5, GLP-1R M204A
GLP-1R Q211A = molecular target: T6, GLP-1R Q211A

IC50 (GLP-1R K202A) [nM] | IC50 (GLP-1R E138A) [nM] | IC50 (GLP-1R S193A) [nM] | IC50 (GLP-1R P137A) [nM] | IC50 (GLP-1R M204A) [nM] | IC50 (GLP-1R Q211A) [nM] | Binder
6.03 | 6.92 | 5.01 | 40.7 | 79.4 | 2.34 | HAEGTFTSDVSSYLEGQAAKEFIAWLVKGR (not fully specified (C-terminus)) [glucagon-like peptide-1]
191 | 45.7 | 14.8 | 74.1 | 741 | 19.5 | HSQGTFTSDYSKYLDSRRAQDFVQWLMNTKRNRNNIA [oxyntomodulin]
